From article PMC4565748 come the findings set out here.

Experiment [1] deals with complement C3b, site-specifically biotinylated (human) (UniProt P01024). Put plainly: SPR.
For experiment [2] the target is unchanged. Put plainly: SPR. This is another data set of the same source. Background: Surface plasmon resonance follows binding to a sensor surface in real time, without labels.
Experiment [3] has the same target. Nature of the experiment: AlphaScreen or HTRF. Background: In Alpha technology, singlet oxygen from a donor bead excites a nearby acceptor bead.

Chain of complement C3b, site-specifically biotinylated (human) (P01024 23-667, chain 1 of 2): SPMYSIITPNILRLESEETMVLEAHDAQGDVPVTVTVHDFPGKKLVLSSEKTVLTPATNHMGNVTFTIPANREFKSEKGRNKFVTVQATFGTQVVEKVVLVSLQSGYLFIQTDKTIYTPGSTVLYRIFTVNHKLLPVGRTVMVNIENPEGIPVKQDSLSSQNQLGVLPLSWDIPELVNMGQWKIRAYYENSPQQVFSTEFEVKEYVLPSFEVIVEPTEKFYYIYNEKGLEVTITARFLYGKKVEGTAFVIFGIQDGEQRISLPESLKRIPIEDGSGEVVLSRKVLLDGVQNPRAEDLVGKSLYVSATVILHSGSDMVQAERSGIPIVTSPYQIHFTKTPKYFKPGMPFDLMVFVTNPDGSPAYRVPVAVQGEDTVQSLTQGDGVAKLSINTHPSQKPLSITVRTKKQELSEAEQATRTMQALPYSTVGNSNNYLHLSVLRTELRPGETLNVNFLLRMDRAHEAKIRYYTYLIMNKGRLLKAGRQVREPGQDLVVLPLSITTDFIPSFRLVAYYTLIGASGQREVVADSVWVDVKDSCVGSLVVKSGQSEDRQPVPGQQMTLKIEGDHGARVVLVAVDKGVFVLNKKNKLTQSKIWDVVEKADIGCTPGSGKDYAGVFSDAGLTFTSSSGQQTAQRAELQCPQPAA
Chain of complement C3b, site-specifically biotinylated (human) (P01024 749-1663, chain 2 of 2): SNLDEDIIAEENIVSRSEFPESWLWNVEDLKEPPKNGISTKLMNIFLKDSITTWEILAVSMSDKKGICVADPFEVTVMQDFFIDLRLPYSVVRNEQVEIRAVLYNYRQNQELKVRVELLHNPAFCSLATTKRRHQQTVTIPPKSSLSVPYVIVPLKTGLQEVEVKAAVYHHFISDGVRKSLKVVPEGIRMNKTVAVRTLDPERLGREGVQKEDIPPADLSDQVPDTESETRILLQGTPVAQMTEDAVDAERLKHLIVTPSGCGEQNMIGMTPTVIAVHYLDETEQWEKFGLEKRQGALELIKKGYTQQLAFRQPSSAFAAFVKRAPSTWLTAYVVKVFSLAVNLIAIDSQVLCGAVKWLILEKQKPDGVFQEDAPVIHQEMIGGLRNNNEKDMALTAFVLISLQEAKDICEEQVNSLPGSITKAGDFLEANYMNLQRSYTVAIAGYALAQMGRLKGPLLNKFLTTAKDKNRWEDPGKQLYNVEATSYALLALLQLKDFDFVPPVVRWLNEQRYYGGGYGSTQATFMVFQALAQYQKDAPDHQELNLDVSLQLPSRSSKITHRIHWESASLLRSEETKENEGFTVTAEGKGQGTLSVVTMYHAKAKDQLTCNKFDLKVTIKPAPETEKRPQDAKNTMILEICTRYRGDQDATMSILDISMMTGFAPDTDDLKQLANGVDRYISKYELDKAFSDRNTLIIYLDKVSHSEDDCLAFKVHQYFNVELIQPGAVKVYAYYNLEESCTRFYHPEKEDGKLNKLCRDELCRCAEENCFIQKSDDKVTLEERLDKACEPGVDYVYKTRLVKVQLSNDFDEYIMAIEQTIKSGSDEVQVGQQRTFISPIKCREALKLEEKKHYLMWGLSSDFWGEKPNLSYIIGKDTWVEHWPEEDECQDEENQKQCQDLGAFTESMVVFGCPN

For the substance SCIN-B.R44A (natural protein), in experiment [1], the Kd (usually the concentration at which binding is half-saturated) amounted to 2600 nM; the koff (in general, the rate constant with which the complex falls apart) was found to be 0.35 s⁻¹; the kon (usually the rate constant with which the complex forms) was 140000 M⁻¹ s⁻¹. In experiment [2], this substance showed a Kd of 2500 nM.
Regarding SCIN-B.R44A.Y51A (natural protein), the Kd turned out to be 3500 nM in experiment [3], 5100 nM in experiment [1] and 2500 nM in experiment [2]. The same substance had a koff in experiment [1] of 0.51 s⁻¹. In experiment [1], this substance returned a kon of 110000 M⁻¹ s⁻¹.
For SCIN-B.Y51A (natural protein), the Kd was found to be 900 nM in experiment [3], 810 nM in experiment [1] and 1000 nM in experiment [2].
In the case of “staphylococcal complement inhibitor SCIN-B, full-length wild type (natural protein)”, in experiment [1], the Kd stood at 202 nM and the kon was found to be 520000 M⁻¹ s⁻¹. The same substance gave a Kd in experiment [2] of 390 nM.
